Test results from PMC6468292.

T1: FOXC2-DBD (human, UniProt Q99958 72-171)
T1 sequence: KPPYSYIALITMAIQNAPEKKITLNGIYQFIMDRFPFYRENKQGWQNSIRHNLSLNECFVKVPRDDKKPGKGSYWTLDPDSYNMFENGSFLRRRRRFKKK

T2: FOXA2-DBD (human, UniProt Q9Y261-2 163-264)
T2 sequence: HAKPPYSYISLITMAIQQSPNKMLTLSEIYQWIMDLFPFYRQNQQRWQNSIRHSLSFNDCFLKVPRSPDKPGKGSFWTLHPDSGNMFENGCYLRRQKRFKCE

T3: FOXM1-DBD (human, UniProt Q08050 222-360)
T3 sequence: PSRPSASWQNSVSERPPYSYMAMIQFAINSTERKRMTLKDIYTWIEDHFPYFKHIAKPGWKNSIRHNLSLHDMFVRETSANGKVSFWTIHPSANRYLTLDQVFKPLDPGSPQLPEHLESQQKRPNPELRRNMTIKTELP

B1: DNA3 (GTACACA, palindromic) (dsDNA)
DNA 1: ATTTGTGTACACAAAT
DNA 2: ATTTGTGTACACAAAT
B2: ACAAATA site (DNA4, ITC) (dsDNA)
DNA 1: TGCAAAATACAAATAAGACT
DNA 2: AGTCTTATTTGTATTTTGCA
B3: DBE2 (GTAAACA) (dsDNA)
DNA 1: CAAAATGTAAACAAGA
DNA 2: TCTTGTTTACATTTTG
B4: GTACACA site (ITC) (dsDNA)
DNA 1: TGCAAAATGTACACAAGACT
DNA 2: AGTCTTGTGTACATTTTGCA

Assays:
[1] = molecular target: T1, FOXC2-DBD; experiment: EMSA
[2] = molecular target: T2, FOXA2-DBD; experiment: ITC
[3] = molecular target: T3, FOXM1-DBD; experiment: ITC
[4] = molecular target: T1, FOXC2-DBD; experiment: crystal structure
[5] = molecular target: T1, FOXC2-DBD; experiment: ITC

| Binder | binding result [1] | Kd [2] | Kd [3] | binding result [4] | Kd [5] |
| --- | --- | --- | --- | --- | --- |
| B1 | binds |  |  |  |  |
| B2 |  | 7540 nM | 2070 nM |  |  |
| B3 |  |  |  | binds |  |
| B4 |  | 990 nM | 8300 nM |  | 2220 nM |
